molecular target: T1, human PTHrP (1-34) (human); experiment: ELISA, plate coated with human PTHrP (1-34)
T1 construct: Coated on the ELISA plate at 1 ug/ml; Added at 1 ng/ml final in the cAMP neutralisation assay, where the species is not restated; also called parathyroid hormone-related peptide (1-34)
Method: An ELISA plate for determining antigen-binding ability was prepared as follows. Each well of a 96-well ELISA plate was coated with 100 μl of a coating buffer containing 1 μg/ml of human PTHrP (1-34) and then blocked with 200 μl of a dilution buffer. Subsequently, each well was added with each of the serial dilutions of the COS-7 cell culture supernatant in which each of the hybrid antibodies and humanized antibodies was expressed, or added with each of the serial dilutions of each of the hybrid antibodies and humanized antibodies in a purified form. The plate was incubated at room temperature and washed with PBS-Tween 20. Subsequently, each well was added with 100 μl of alkaline phosphatase-conjugated goat anti-human IgG antibody (TAGO). The plate was incubated at room temperature and washed with PBS-Tween 20. Subsequently, each well was added with 1 mg/ml of a substrate solution ("Sigma 104"; p-nitrophenylphosphoric acid, SIGMA). The solution was measured on its absorbance at 405 nm using Microplate Reader (Bio Rad).

Row | Binder | binding result
1 | antibody having both a humanized H-chain version “a” and a chimeric L-chain (antibody, V domains shown, Human Cγ1 H-chain C-region) VH: QVQLVESGGGVVQPGRSLRLSCAASGFTFSSYGMSWVRQAPGKGLEWVATISSGGSYTYYPDSVKGRFTISRDNSKNTLYLQMNSLRAEDTAVYYCARQTTMTYFAYWGQGTLVTVSS VL: QLVLTQSSSASFSLGASAKLTCTLSSQHSTYTIEWYQQQPLKPPKYVMDLKQDGSHSTGDGIPDRFSGSSSGADRYLSISNIQPEDEAMYICGVGDTIKEQFVYVFGGGTKVTVLG | binds
2 | humanized #23-57-137-1 antibody having H-chain version “a” and L-chain version “m” (antibody, IgG1, V domains shown, Human Cγ1 (IgG1) and human λ C-regions; expressed in COS-7 cells; also called hMBC1Lmλ) VH: QVQLVESGGGVVQPGRSLRLSCAASGFTFSSYGMSWVRQAPGKGLEWVATISSGGSYTYYPDSVKGRFTISRDNSKNTLYLQMNSLRAEDTAVYYCARQTTMTYFAYWGQGTLVTVSS VL: QLVLTQSPSASASLGASVKLTCTLSSQHSTYTIEWYQQQPEKGPRYLMDLKQDGSHSTGDGIPDRFSGSSSGAERYLTISSLQSEDEADYYCGVGDTIKEQFVYVFGGGTKLTVLG | binds
3 | humanized #23-57-137-1 antibody having H-chain version “a” and L-chain version “o” (antibody, IgG1, V domains shown, Human Cγ1 (IgG1) and human λ C-regions; expressed in COS-7 cells; also called hMBC1Loλ) VH: QVQLVESGGGVVQPGRSLRLSCAASGFTFSSYGMSWVRQAPGKGLEWVATISSGGSYTYYPDSVKGRFTISRDNSKNTLYLQMNSLRAEDTAVYYCARQTTMTYFAYWGQGTLVTVSS VL: QLVLTQSPSASASLGASVKLTCTLSSQHSTYTIEWYQQQPEKGPRYVMDLKQDGSHSTGDGIPDRFSGSSSGAERYLTISSLQSEDEADYYCGVGDTIKEQFVYVFGGGTKLTVLG | binds
4 | humanized #23-57-137-1 antibody having H-chain version “a” and L-chain version “l” (antibody, IgG1, V domains shown, Human Cγ1 (IgG1) and human λ C-regions; expressed in COS-7 cells; also called hMBC1Llλ) VH: QVQLVESGGGVVQPGRSLRLSCAASGFTFSSYGMSWVRQAPGKGLEWVATISSGGSYTYYPDSVKGRFTISRDNSKNTLYLQMNSLRAEDTAVYYCARQTTMTYFAYWGQGTLVTVSS VL: QLVLTQSPSASASLGASVKLTCTLSSQHSTYTIEWYQQQPEKGPKYVMDLKQDGSHSTGDGIPDRFSGSSSGAERYLTISSLQSEDEADYYCGVGDTIKEQFVYVFGGGTKLTVLG | binds
5 | hybrid antibody with humanized H-chain version a and L-chain m/hMBC1Laλ (mouse FR1,2/human FR3,4) (antibody, V domains shown, Human Cγ1 and human λ C-regions; expressed in COS-7 cells) VH: QVQLVESGGGVVQPGRSLRLSCAASGFTFSSYGMSWVRQAPGKGLEWVATISSGGSYTYYPDSVKGRFTISRDNSKNTLYLQMNSLRAEDTAVYYCARQTTMTYFAYWGQGTLVTVSS VL: QLVLTQSSSASFSLGASAKLTCTLSSQHSTYTIEWYQQQPLKPPKYVMDLKQDGSHSTGDGIPDRFSGSSSGAERYLTISSLQSEDEADYYCGVGDTIKEQFVYVFGGGTKLTVL | binds
6 | humanized #23-57-137-1 antibody having H-chain version “a” and L-chain version “j” (antibody, IgG1, V domains shown, Human Cγ1 (IgG1) and human λ C-regions; expressed in COS-7 cells; also called hMBC1Ljλ) VH: QVQLVESGGGVVQPGRSLRLSCAASGFTFSSYGMSWVRQAPGKGLEWVATISSGGSYTYYPDSVKGRFTISRDNSKNTLYLQMNSLRAEDTAVYYCARQTTMTYFAYWGQGTLVTVSS VL: QLVLTQSPSASASLGASVKLTCTLSSQHSTYTIEWYQQQPEKGPKYLMDLKQDGSHSTGDGIPDRFSGSSSGAERYLTISSLQSEDEADYYCGVGDTIKEQFVYVFGGGTKLTVLG | binds
7 | hybrid antibody with humanized H-chain version a and L-chain hmmMBC1L(λ) (human FR1/mouse FR2,3,4) (antibody, V domains shown, Human Cγ1 and human λ C-regions; expressed in COS-7 cells) VH: QVQLVESGGGVVQPGRSLRLSCAASGFTFSSYGMSWVRQAPGKGLEWVATISSGGSYTYYPDSVKGRFTISRDNSKNTLYLQMNSLRAEDTAVYYCARQTTMTYFAYWGQGTLVTVSS VL: QLVLTQSPSASASLGASVKLTCTLSSQHSTYTIEWYQQQPLKPPKYVMDLKQDGSHSTGDGIPDRFSGSSSGADRYLSISNIQPEDEAMYICGVGDTIKEQFVYVFGGGTKVTVL | binds

Other lines, results leading:

Row | binding result | Binder
8 | binds | humanized #23-57-137-1 antibody having H-chain version “a” and L-chain version “t” (antibody, IgG1, V domains shown, Human Cγ1 (IgG1) and human λ C-regions; expressed in COS-7 cells; also called hMBC1Ltλ) VH: QVQLVESGGGVVQPGRSLRLSCAASGFTFSSYGMSWVRQAPGKGLEWVATISSGGSYTYYPDSVKGRFTISRDNSKNTLYLQMNSLRAEDTAVYYCARQTTMTYFAYWGQGTLVTVSS VL: QLVLTQSPSASASLGASVKLTCTLSSQHSTYTIEWYQQQPEKGPRYVMDLKQDGSHSTGDGIPDRFSGSSSGAERYLTISSLQSEDEADYICGVGDTIKEQFVYVFGGGTKLTVLG
9 | binds | humanized #23-57-137-1 antibody having H-chain version “a” and L-chain version “q” (antibody, IgG1, V domains shown, Human Cγ1 (IgG1) and human λ C-regions; expressed in COS-7 cells and in CHO cells; also called hMBC1Lqλ) VH: QVQLVESGGGVVQPGRSLRLSCAASGFTFSSYGMSWVRQAPGKGLEWVATISSGGSYTYYPDSVKGRFTISRDNSKNTLYLQMNSLRAEDTAVYYCARQTTMTYFAYWGQGTLVTVSS VL: QLVLTQSPSASASLGASVKLTCTLSSQHSTYTIEWYQQQPEKGPKYLMDLKQDGSHSTGDGIPDRFSGSSSGAERYLTISSLQSEDEADYICGVGDTIKEQFVYVFGGGTKLTVLG

molecular target: T1, human PTHrP (1-34); experiment: solid phase RIA of hybridoma culture supernatant
Method: The screening of hybridomas was performed by determining the presence of PTHrP-recognition antibodies in the culture supernatant of the wells in which cell growth had been observed in HAT medium, by solid phase RIA method. The hybridomas were collected from the wells in which the binding ability to the PTHrP-recognition antibodies had been confirmed. The hybridomas thus obtained was suspended into RPMI-1640 medium containing 15% FCS supplemented with OPI-supplement (Sigma), followed by unification of the hybridomas by limiting dilution method.

Row | binding result | Binder
10 | binds | mouse monoclonal antibody #23-57-137-1 against human PTHrP (1-34) (antibody, V domains shown, Mouse antibody in hybridoma culture supernatant (FERM BP-5631); Lambda L-chain; also called MBC1) VH: EVQLVESGGDLVKPGGSLKLSCAASGFTFSSYGMSWIRQTPDKRLEWVATISSGGSYTYYPDSVKGRFTISRDNAKNTLYLQMSSLKSEDTAMFYCARQTTMTYFAYWGQGTLVTVSA VL: QLVLTQSSSASFSLGASAKLTCTLSSQHSTYTIEWYQQQPLKPPKYVMDLKQDGSHSTGDGIPDRFSGSSSGADRYLSISNIQPEDEAMYICGVGDTIKEQFVYVFGGGTKVTVLG

molecular target: T1, human PTHrP (1-34); experiment: ELISA, plate coated with human PTHrP (1-34); COS-7 supernatant or purified antibody
Method: An ELISA plate for the determination of antigen-binding ability was prepared as follows. Each well of a 96-well ELISA plate was coated with 100 µl of a coating buffer supplemented with 1 µg/ml of human PTHrP (1-34) (Peptide Research Institute), and then blocked with 200 µl of a dilution buffer. Each well was added with each of the serial dilutions of the COS-7 cell culture supernatant in which each of the chimeric antibodies had been expressed, or added with each of the serial dilutions of each of the chimeric antibodies per se in a purified form. After the plate was incubated at room temperature and washed with PBS-Tween 20, each well of the plate was added with 100 µl of a solution of alkaline phosphatase-conjugated goat anti-human IgG antibodies (TAGO). After the plate was incubated at room temperature and washed with PBS-Tween 20, each well of the plate was added with 1 mg/ml of a substrate solution ("Sigma 104"; p-nitrophenylphosphoric acid, SIGMA). The solution was measured on its absorbance at 405 nm using Microplate Reader (Bio Rad).

Row | binding result | Binder
11 | binds | chimeric #23-57-137-1 antibody with L-chain κ chain C-region (antibody, IgG1, V domains shown, Mouse V-regions joined to human H-chain C-region Cγ1 (IgG1) and human κ chain C-region cloned from HEF-PM1k-gk; Expressed in COS-7 cells; also called chimeric antibody (MBC1HcDNA/pCOS1 and MBC1L(κ)/neo)) VH: EVQLVESGGDLVKPGGSLKLSCAASGFTFSSYGMSWIRQTPDKRLEWVATISSGGSYTYYPDSVKGRFTISRDNAKNTLYLQMSSLKSEDTAMFYCARQTTMTYFAYWGQGTLVTVSA VL: QLVLTQSSSASFSLGASAKLTCTLSSQHSTYTIEWYQQQPLKPPKYVMDLKQDGSHSTGDGIPDRFSGSSSGADRYLSISNIQPEDEAMYICGVGDTIKEQFVYVFGGGTKVTVLG
12 | binds | chimeric #23-57-137-1 antibody with L-chain λ chain C-region (antibody, IgG1, V domains shown, Mouse V-regions joined to human H-chain C-region Cγ1 (IgG1) and human λ chain C-region (isotype Mcg+Ke+Oz-, EMBL X57819); Expressed in COS-7 cells; also called chimeric antibody (MBC1HcDNA/pCOS1 and MBC1L(λ)/neo)) VH: EVQLVESGGDLVKPGGSLKLSCAASGFTFSSYGMSWIRQTPDKRLEWVATISSGGSYTYYPDSVKGRFTISRDNAKNTLYLQMSSLKSEDTAMFYCARQTTMTYFAYWGQGTLVTVSA VL: QLVLTQSSSASFSLGASAKLTCTLSSQHSTYTIEWYQQQPLKPPKYVMDLKQDGSHSTGDGIPDRFSGSSSGADRYLSISNIQPEDEAMYICGVGDTIKEQFVYVFGGGTKVTVLG

Source: patent US7655227 (Chugai, dated 2010)
